From paper PMC11673900 (Journal of Translational Medicine, 2024)

Target: GST-tagged PARP1, full-length (human, UniProt P09874 1-1014)
Assay: co-IP

GST-tagged PARP1, full-length, sequence (P09874 whole entry): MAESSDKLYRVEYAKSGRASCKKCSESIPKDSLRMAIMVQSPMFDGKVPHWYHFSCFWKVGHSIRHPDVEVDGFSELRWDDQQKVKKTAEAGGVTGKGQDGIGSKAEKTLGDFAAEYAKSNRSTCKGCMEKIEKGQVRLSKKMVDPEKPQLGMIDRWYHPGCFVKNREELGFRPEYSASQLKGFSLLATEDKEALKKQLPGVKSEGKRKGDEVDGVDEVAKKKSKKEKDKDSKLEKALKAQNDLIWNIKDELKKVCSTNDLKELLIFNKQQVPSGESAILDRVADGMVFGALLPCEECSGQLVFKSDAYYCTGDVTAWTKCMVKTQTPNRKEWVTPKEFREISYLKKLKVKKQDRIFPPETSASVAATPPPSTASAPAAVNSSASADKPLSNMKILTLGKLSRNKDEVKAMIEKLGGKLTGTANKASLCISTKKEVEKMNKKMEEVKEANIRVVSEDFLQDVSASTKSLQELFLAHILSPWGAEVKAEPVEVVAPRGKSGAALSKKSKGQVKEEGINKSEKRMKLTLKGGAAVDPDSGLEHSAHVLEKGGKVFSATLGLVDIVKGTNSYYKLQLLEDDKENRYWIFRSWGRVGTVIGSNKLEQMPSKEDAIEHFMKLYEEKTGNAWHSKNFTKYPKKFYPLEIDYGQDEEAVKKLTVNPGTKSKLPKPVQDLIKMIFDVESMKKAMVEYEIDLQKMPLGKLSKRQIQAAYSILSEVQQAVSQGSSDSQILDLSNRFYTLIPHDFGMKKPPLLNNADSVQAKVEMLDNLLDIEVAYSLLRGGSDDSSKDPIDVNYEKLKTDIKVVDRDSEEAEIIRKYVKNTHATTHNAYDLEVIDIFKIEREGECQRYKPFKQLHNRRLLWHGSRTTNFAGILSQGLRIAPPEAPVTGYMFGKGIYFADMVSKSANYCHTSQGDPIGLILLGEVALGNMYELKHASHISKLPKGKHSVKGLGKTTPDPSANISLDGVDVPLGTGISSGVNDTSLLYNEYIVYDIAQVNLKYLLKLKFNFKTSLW

binding result: binds
B1: MBP-tagged NONO (natural protein, human, UniProt Q15233 1-471, looked up)
chain: MQSNKTFNLEKQNHTPRKHHQHHHQQQHHQQQQQQPPPPPIPANGQQASSQNEGLTIDLKNFRKPGEKTFTQRSRLFVGNLPPDITEEEMRKLFEKYGKAGEVFIHKDKGFGFIRLETRTLAEIAKVELDNMPLRGKQLRVRFACHSASLTVRNLPQYVSNELLEEAFSVFGQVERAVVIVDDRGRPSGKGIVEFSGKPAARKALDRCSEGSFLLTTFPRPVTVEPMDQLDDEEGLPEKLVIKNQQFHKEREQPPRFAQPGSFEYEYAMRWKALIEMEKQQQDQVDRNIKEAREKLEMEMEAARHEHQVMLMRQDLMRRQEELRRMEELHNQEVQKRKQLELRQEEERRRREEEMRRQQEEMMRRQQEGFKGTFPDAREQEIRMGQMAMGGAMGINNRGAMPPAPVPAGTPAPPGPATMMPDGTLGLTPPTTERFGQAATMEGIGAIGGTPPAFNRAAPGAEFAPNKRRRY
